The text below walks through data of patent US20260008815A1, “CYCLIC PEPTIDE OR SALT THEREOF, AND USES THEREOF” (FUJIFILM Corporation, priority 2023, published 2026).

Numbered stars: 1 amine (or outer) side, 2 acyl side, 3 side chain; on linkers, the order of the positions; unused ones are H or OH. Bridge positions count the residues as written; N and C are the ends. Ends that are not written are not given here. acetyl = acetyl (haloacetyl before ring closure) on the side-chain amine, O=C(C[*:1])[*:2]; COCH2 = acetyl group that carries the bridge

T1 sequence (P21802 with tags, fused parts or gaps limits assumed): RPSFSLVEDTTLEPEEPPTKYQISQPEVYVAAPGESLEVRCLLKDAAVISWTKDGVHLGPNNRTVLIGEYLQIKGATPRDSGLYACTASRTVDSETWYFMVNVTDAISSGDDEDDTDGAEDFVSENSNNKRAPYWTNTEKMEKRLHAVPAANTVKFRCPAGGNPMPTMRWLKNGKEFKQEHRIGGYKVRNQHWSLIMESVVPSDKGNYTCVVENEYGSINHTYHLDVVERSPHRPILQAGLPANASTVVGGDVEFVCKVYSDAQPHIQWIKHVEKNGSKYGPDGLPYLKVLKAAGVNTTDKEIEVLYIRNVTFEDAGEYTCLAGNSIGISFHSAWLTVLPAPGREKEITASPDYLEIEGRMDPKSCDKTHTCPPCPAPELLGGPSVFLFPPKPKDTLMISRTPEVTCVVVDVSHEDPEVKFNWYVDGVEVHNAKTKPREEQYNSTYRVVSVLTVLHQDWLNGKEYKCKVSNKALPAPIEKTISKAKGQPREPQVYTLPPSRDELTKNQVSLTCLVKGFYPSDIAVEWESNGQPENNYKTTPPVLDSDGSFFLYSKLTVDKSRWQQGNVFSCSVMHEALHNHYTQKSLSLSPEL

This test has as its target T1, Recombinant Human FGFR2 alpha (IIIc) Fc Chimera Protein (Homo sapiens, UniProt P21802).
T1 construct: Fc (chimera); purchased R&D systems 712-FR-050
In words: ELISA binding affinity of enzymatically synthesized peptide to FGFR. The settings on record: ELISA luminescence signal at 10 nmol/L peptide, SEQ ID NO: 47 at 10 nmol/L standardized to 1; enzyme synthesis product. The gist of the method: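 FGFR2 alpha (IIIc) Fc chimera (5 ng/well) was immobilized, and Myc-tagged peptide was bound 3 h at room temperature, then detected with anti-Myc antibody (2 h) and chemiluminescent substrate. Signal was corrected against FGFR-free wells. Score A–D was the luminescence at 10 nmol/L peptide, normalized to cyclic peptide SEQ ID NO: 47.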
“166 (YCEGNYLDPEQYQYFIYFK(COCH2)Y; thioether 2-19 (inferred)) [compound 166]”: the “Evaluation result of binding affinity to FGFR” value (“Evaluation result” for short) is reported as “A (0.7 or more)”.
For “81 (SCPQNFINPVQWRYFQHYK(COCH2)N; thioether 2-19 (inferred)) [compound 81]” the value was “A (0.7 or more)”.
For “368 (QCLIQDLYAYIFK(COCH2)L; thioether 2-13) [compound 368]” the value was “C (0.1 or more and less than 0.5)”.
The entry for “394 (YCHENYLDPEQYQYFHYFK(COCH2)R; thioether 2-19 (inferred)) [compound 394]” is “B (0.5 or more and less than 0.7)”; for “241 (YCEENYLDPFQYQYFIYFK(COCH2)Y; thioether 2-19 (inferred)) [compound 241]” it is “A (0.7 or more)”; for “140 (VCEENYLDPEQYQYFIYFKY; Description of Artificial Sequence: Cyclic peptide) [compound 140]” it is “A (0.7 or more)”.
For “249 (YCEENYLDPRQYQYFIYFK(COCH2)Y; thioether 2-19 (inferred)) [compound 249]”, the “Evaluation result” value is “A (0.7 or more)”.
For “129 (ECPWNFVNQLQWQYFITYK(COCH2)V; thioether 2-19 (inferred)) [compound 129]” the value was “A (0.7 or more)”.
The entry for “329 (YCEENYLDAEQYQYFIYFK(COCH2)Y; thioether 2-19 (inferred)) [compound 329]” is “A (0.7 or more)”; for “193 (YCEENRLDPEQYQYFIYFK(COCH2)Y; thioether 2-19 (inferred)) [compound 193]” it is “C (0.1 or more and less than 0.5)”; for “212 (YCEENYLYPEQYQYFIYFK(COCH2)Y; thioether 2-19 (inferred)) [compound 212]” it is “A (0.7 or more)”.
In the case of “185 (YCEETYLDPEQYQYFIYFK(COCH2)Y; thioether 2-19 (inferred)) [compound 185]”, the “Evaluation result” value is “C (0.1 or more and less than 0.5)”.
As for “357 (YCEENYLDPEQYQMFIYFK(COCH2)Y; thioether 2-19) [compound 357]”, the “Evaluation result” value was “C (0.1 or more and less than 0.5)”.
The entry for “225 (YCEENYLDFEQYQYFIYFK(COCH2)Y; thioether 2-19 (inferred)) [compound 225]” is “A (0.7 or more)”; for “204 (YCEENYEDPEQYQYFIYFK(COCH2)Y; thioether 2-19 (inferred)) [compound 204]” it is “C (0.1 or more and less than 0.5)”.
For “402 (PCEVYNYWYPTQWFFFTQFK(COCH2)K; thioether 2-20 (inferred)) [compound 402]” the value was “A (0.7 or more)”; for “132 (ECQENFVDRQQYWYFLSYK(COCH2)F; thioether 2-19 (inferred)) [compound 132]”, “A (0.7 or more)”.
The entry for “68 (KCQNFINPVQWRYFQHYK(COCH2)N; thioether 2-18 (inferred)) [compound 68]” is “A (0.7 or more)”; for “211 (YCEENYLFPEQYQYFIYFK(COCH2)Y; thioether 2-19 (inferred)) [compound 211]” it is “A (0.7 or more)”; for “66 (KCPQNFINPVQWRYFQAYK(COCH2)N; thioether 2-19 (inferred)) [compound 66]” it is “A (0.7 or more)”.
“291 (YCEENYLDPEQYQYFIGFK(COCH2)Y; thioether 2-19) [compound 291]”: the “Evaluation result” value is “B (0.5 or more and less than 0.7)”.
The entry for “209 (YCEENYLIPEQYQYFIYFK(COCH2)Y; thioether 2-19 (inferred)) [compound 209]” is “C (0.1 or more and less than 0.5)”.
The entry for “305 (YCEENYLDPEQYQYFIHFK(COCH2)Y; thioether 2-19 (inferred)) [compound 305]” is “A (0.7 or more)”.
The entry for “292 (YCEENYLDPEQYQYFIPFK(COCH2)Y; thioether 2-19) [compound 292]” is “C (0.1 or more and less than 0.5)”; for “393 (YCHENYLDPEQHQYFHYFK(COCH2)Y; thioether 2-19 (inferred)) [compound 393]” it is “C (0.1 or more and less than 0.5)”.
For the substance “240 (YCEENYLDPVQYQYFIYFK(COCH2)Y; thioether 2-19 (inferred)) [compound 240]”, the “Evaluation result” value is reported as “A (0.7 or more)”.
For “298 (YCEENYLDPEQYQYFINFK(COCH2)Y; thioether 2-19) [compound 298]” the value was “A (0.7 or more)”; for “432 (CENYLDPEQYQYFHYFK(COCH2)Y; thioether 1-17 via acetyl) [compound 432]”, “C (0.1 or more and less than 0.5)”.
“282 (YCEENYLDPEQYQYFWYFK(COCH2)Y; thioether 2-19) [compound 282]”: the “Evaluation result” value is “A (0.7 or more)”.
The entry for “86 (HCPQNFINPVQWRYFQHYK(COCH2)N; thioether 2-19 (inferred)) [compound 86]” is “A (0.7 or more)”.
The entry for “274 (YCEENYLDPEQYQHFIYFK(COCH2)Y; thioether 2-19) [compound 274]” is “C (0.1 or more and less than 0.5)”; for “224 (YCEENYLDVEQYQYFIYFK(COCH2)Y; thioether 2-19 (inferred)) [compound 224]” it is “A (0.7 or more)”.
The entry for “174 (YCENNYLDPEQYQYFIYFK(COCH2)Y; thioether 2-19 (inferred)) [compound 174]” is “A (0.7 or more)”.
Turning to “336 (YCKENYLDPEQYQYFIYFK(COCH2)Y; thioether 2-19 (inferred)) [compound 336]”, the “Evaluation result” value was “A (0.7 or more)”.
The entry for “420 (YCEAQPYYFQLYRLWHRQEK(COCH2)P; thioether 2-20 via acetyl) [compound 420]” is “C (0.1 or more and less than 0.5)”.
The entry for “290 (YCEENYLDPEQYQYFHYFK(COCH2)Y; thioether 2-19) [compound 290]” is “A (0.7 or more)”; for “306 (YCEENYLDPEQYQYFIYYK(COCH2)Y; thioether 2-19 (inferred)) [compound 306]” it is “A (0.7 or more)”.
For “296 (YCEENYLDPEQYQYFIFFK(COCH2)Y; thioether 2-19) [compound 296]”, the “Evaluation result” value is on record as “A (0.7 or more)”.
In the case of “123 (QCQNFITEVQFTYFWHYK(COCH2)T; thioether 2-18 (inferred)) [compound 123]”, the “Evaluation result” value is recorded as “A (0.7 or more)”.
For “125 (YCRDNYFYLEQWQYLYLYK(COCH2)H; thioether 2-19 (inferred)) [compound 125]” the value was “A (0.7 or more)”.
With “372 (QCEQLKYLYQYVLK(COCH2)L; thioether 2-14) [compound 372]”, the “Evaluation result” value is “C (0.1 or more and less than 0.5)”.
Consider “397 (YCEENYLDPEQHQYFIYFK(COCH2)H; thioether 2-19 (inferred)) [compound 397]”, for which the “Evaluation result” value was “A (0.7 or more)”.
Regarding “188 (YCEENWLDPEQYQYFIYFK(COCH2)Y; thioether 2-19 (inferred)) [compound 188]”, the “Evaluation result” value is recorded as “A (0.7 or more)”.
The entry for “79 (NCPQNFINPVQWRYFQHYK(COCH2)N; thioether 2-19 (inferred)) [compound 79]” is “A (0.7 or more)”.
As for “388 (RCHHNFHHARQHGFFYHYK(COCH2)R; thioether 2-19 (inferred)) [compound 388]”, the “Evaluation result” value was “C (0.1 or more and less than 0.5)”.
For “46 (SCIQQNYFWQYVFERYRYKQ; Description of Artificial Sequence: Cyclic peptide) [compound 46]” the value was “B (0.5 or more and less than 0.7)”; for “95 (QCPQGFINPVQWRYFQHYK(COCH2)N; thioether 2-19) [compound 95]”, “C (0.1 or more and less than 0.5)”; for “358 (YCEENYLDPEQYQYFMYFK(COCH2)Y; thioether 2-19) [compound 358]”, “A (0.7 or more)”.
The entry for “168 (YCELNYLDPEQYQYFIYFK(COCH2)Y; thioether 2-19 (inferred)) [compound 168]” is “A (0.7 or more)”; for “223 (YCEENYLDIEQYQYFIYFK(COCH2)Y; thioether 2-19 (inferred)) [compound 223]” it is “A (0.7 or more)”; for “277 (YCEENYLDPEQYQYFGYFK(COCH2)Y; thioether 2-19) [compound 277]” it is “C (0.1 or more and less than 0.5)”.
In the case of “143 (NCEENYLDPEQYQYFIYFKY; Description of Artificial Sequence: Cyclic peptide) [compound 143]”, the “Evaluation result” value was “A (0.7 or more)”.
For “322 (ACEENYLDPEQYQYFIYFK(COCH2)Y; thioether 2-19 (inferred)) [compound 322]” the value was “A (0.7 or more)”; for “414 (YCNYEWDGARRQIAYYRIFLKL; Description of Artificial Sequence: Cyclic peptide) [compound 414]”, “C (0.1 or more and less than 0.5)”.
